From the supplement of paper PMC9233669
Variants at the floor of the assay were thinned out.

Legend:
biotinyl-Met-oxazolone = test: self-aminoacylation, catalytic enhancement (BMO) (fold over background); higher = more active; k-Seq, kA / k0A0; sequences stand for … in GGGAAUGGAUCCACAUCUACGAAUUC…UUCACUGCAGACUUGACGAAGCUG
Procedure, shortened: (§1)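 Mutagenized RNA pools with a 21-nt variable region (0.43 μM) were reacted with each biotinyl-aminoacyl-oxazolone at 2–1250 μM for 90 minutes at room temperature, in 50 μL HEPES/NaCl/KCl/MgCl2/CaCl2 buffer containing 5% acetonitrile at pH 6.9–7.0. RNA captured on streptavidin was quantified by triplicate qPCR and by Illumina sequencing. The fraction reacted for each sequence was fit to a pseudo-first-order model with bootstrapping, and catalytic enhancement is the median kA divided by the uncatalyzed rate, taken as the low-activity peak of a bimodal Gaussian fit.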

biotinyl-Trp-oxazolone = test: self-aminoacylation, catalytic enhancement (BWO) (fold over background); higher = more active; k-Seq, kA / k0A0; sequences stand for … in GGGAAUGGAUCCACAUCUACGAAUUC…UUCACUGCAGACUUGACGAAGCUG
Procedure, shortened: as §1

biotinyl-Phe-oxazolone = test: self-aminoacylation, catalytic enhancement (BFO) (fold over background); higher = more active; k-Seq, kA / k0A0; sequences stand for … in GGGAAUGGAUCCACAUCUACGAAUUC…UUCACUGCAGACUUGACGAAGCUG
Procedure, shortened: as §1

biotinyl-Val-oxazolone = test: self-aminoacylation, catalytic enhancement (BVO) (fold over background); higher = more active; k-Seq, kA / k0A0; sequences stand for … in GGGAAUGGAUCCACAUCUACGAAUUC…UUCACUGCAGACUUGACGAAGCUG
Procedure, shortened: as §1

biotinyl-Leu-oxazolone = test: self-aminoacylation, catalytic enhancement (BLO) (fold over background); higher = more active; k-Seq, kA / k0A0; sequences stand for … in GGGAAUGGAUCCACAUCUACGAAUUC…UUCACUGCAGACUUGACGAAGCUG
Procedure, shortened: as §1

biotinyl-Ile-oxazolone = test: self-aminoacylation, catalytic enhancement (BIO) (fold over background); higher = more active; k-Seq, kA / k0A0; sequences stand for … in GGGAAUGGAUCCACAUCUACGAAUUC…UUCACUGCAGACUUGACGAAGCUG
Procedure, shortened: as §1

Sequence	self-aminoacylation (biotinyl-Met-oxazolone)	self-aminoacylation (biotinyl-Trp-oxazolone)	self-aminoacylation (biotinyl-Phe-oxazolone)	self-aminoacylation (biotinyl-Val-oxazolone)	self-aminoacylation (biotinyl-Leu-oxazolone)	self-aminoacylation (biotinyl-Ile-oxazolone)
AUUCGCCUAGGUCAACGGGUG [Fam2.2 aminoacylation ribozyme variant]	4.66	3.75	27.8	2.72	6.03	2.76
AUUCGCCUAGGUCAGCGGGUG [Fam2.2 aminoacylation ribozyme variant]	5.21	5.11	37.8	3.96	5.95	3.91
AUUCGCCUAGGUCAUCGCGUG [Fam2.2 aminoacylation ribozyme variant]	19.2	17.6	126	10.9	23.4	10
AUUCGCCUAGGUCAUCGGCUG [Fam2.2 aminoacylation ribozyme variant]	1.95	2.11	6.51	2.16	2.16	2.08
AUUCGCCUAGGUCAUCGGGUU [Fam2.2 aminoacylation ribozyme variant]	14.1	10.8	75.6	7.13	20.5	8.6
AUUCGCCUAGGUCGUCGGGUG [Fam2.2 aminoacylation ribozyme variant]	2.28	1.51	11.6	2.22	2.18	1.56
AUUCGCCUAGUUCAUCGGGUG [Fam2.2 aminoacylation ribozyme variant]	2.85	3.62	16.2	2.8	3.82	2.26
AUUCGCCUUGGUCAUCGGGUG [Fam2.2 aminoacylation ribozyme variant]	8.81	8.13	74.5	6.21	9.99	5
AUUCGCGUAGGUCAUCGGGUG [Fam2.2 aminoacylation ribozyme variant]	8.32	7.24	57.5	4.87	8.56	5.25
AUUCGUCUAGGUCAUCGGGUG [Fam2.2 aminoacylation ribozyme variant]	4.96	6.11	43.2	4.85	5.27	4.9
AUUCUCCUACGUCAUCGGGUG [Fam2.2 aminoacylation ribozyme variant]	6.97	6.69	57.3	5.36	9.67	4.89
AUUCUCCUAGAUCAUCGGGUG [Fam2.2 aminoacylation ribozyme variant]	4.32	4.66	34.7	2.68	5.3	3.28
AUUCUCCUAGGUCAUCUGGUG [Fam2.2 aminoacylation ribozyme variant]	4.5	4.16	30	2.91	5.43	3.03
AUUCUUCAAACAAUCGGUCUG [Fam1A.1 aminoacylation ribozyme variant]	0.63	1.27	1.66	0.663	0.682	0.672
AUUGACCCAGGUCAUCGGGUG [Fam2.2 aminoacylation ribozyme variant]	4.74	5.64	34.9	3.31	6.54	3.6
AUUGACCUAAGUCAUCGGGUG [Fam2.2 aminoacylation ribozyme variant]	7.6	9.4	56.8	5.26	12.1	5.64
AUUGACCUAGGACAUCGGGUG [Fam2.2 aminoacylation ribozyme variant]	4.19	4.97	19.3	3.53	4.56	3.72
AUUGACCUAGGUAAUCGGGUG [Fam2.2 aminoacylation ribozyme variant]	2.92	3.73	15	3	3.86	3.19
AUUGACCUAGGUCAUAGGGUG [Fam2.2 aminoacylation ribozyme variant]	1.27	1.81	1.72	1.46	1.61	1.58
AUUGACCUAGGUCAUCCGGUG [Fam2.2 aminoacylation ribozyme variant]	4.88	5.12	28.3	3.31	4.69	3.31
AUUGACCUAGGUCAUCGGGUA [Fam2.2 aminoacylation ribozyme variant]	47.1	31.5	355	16.7	59.5	20.4
AUUGACCUAGGUCAUCGUGUG [Fam2.2 aminoacylation ribozyme variant]	1.04	1.35	4.26	1.18	1.36	1.36
AUUGACCUAUGUCAUCGGGUG [Fam2.2 aminoacylation ribozyme variant]	5.68	5.17	28.4	3.64	7.74	3.81
AUUGAUCUAGGUCAUCGGGUG [Fam2.2 aminoacylation ribozyme variant]	6.53	7.06	35.2	3.8	7.89	4.45
AUUGCACUGGUCAUCGAGUGA [Fam2.1 aminoacylation ribozyme variant]	6.01	6.67	32.7	3.93	6.88	3.68
AUUGCCCCGGUCAUCGAGUGA [Fam2.1 aminoacylation ribozyme variant]	5.22	6.57	37.5	3.18	6.75	2.79

Sequence	self-aminoacylation (biotinyl-Met-oxazolone)	self-aminoacylation (biotinyl-Trp-oxazolone)	self-aminoacylation (biotinyl-Phe-oxazolone)	self-aminoacylation (biotinyl-Val-oxazolone)	self-aminoacylation (biotinyl-Leu-oxazolone)	self-aminoacylation (biotinyl-Ile-oxazolone)
AUUGCCCUGGGCAUCGAGUGA [Fam2.1 aminoacylation ribozyme variant]	6.92	7.29	44.5	3.27	8.04	2.96
AUUGCCCUGGUAAUCGAGUGA [Fam2.1 aminoacylation ribozyme variant]	8.63	9.18	56	3.92	7.99	3.71
AUUGCCCUGGUCAUCGACUGA [Fam2.1 aminoacylation ribozyme variant]	0.941	1.35	1.08	0.951	0.735	0.899
AUUGCCCUGGUCAUCGAGAGA [Fam2.1 aminoacylation ribozyme variant]	1.39	0.807	1.73	1.2	1.5	1.2
AUUGCCCUGGUCAUCGAGUAA [Fam2.1 aminoacylation ribozyme variant]	8.54	8.07	28.4	4.02	8.75	3.56
AUUGCCGUGGUCAUCGAGUGA [Fam2.1 aminoacylation ribozyme variant]	4.92	5.71	33.7	3.45	6.18	2.89
AUUUAACUAGGUCAUCGGGUG [Fam2.2 aminoacylation ribozyme variant]	4.3	3.75	31.4	2.72	5.03	2.6
AUUUACCUACGUCAUCGGGUG [Fam2.2 aminoacylation ribozyme variant]	4.54	4.65	32.2	3.17	6.25	2.56
AUUUACCUAGGUCAUCGGGUG [Fam2.2 aminoacylation ribozyme variant]	33.2	26.1	235	15.4	45	18.3
AUUUACCUAGGUCAUCUGGUG [Fam2.2 aminoacylation ribozyme variant]	2.73	3	16.8	1.95	3.75	2.15
AUUUACCUAGGUCAUUGGGUG [Fam2.2 aminoacylation ribozyme variant]	3.54	3.11	19.7	2.26	3.79	2.34
AUUUACCUGGUCAUCGAGUGA [Fam2.1 aminoacylation ribozyme variant]	7.97	8.91	8.89	4.29	7.77	4
AUUUACCUUGGUCAUCGGGUG [Fam2.2 aminoacylation ribozyme variant]	7.16	6.6	45.7	4.81	8.83	4.48
AUUUACUUAGGUCAUCGGGUG [Fam2.2 aminoacylation ribozyme variant]	4.85	4.45	32.2	3.18	5.78	2.91
AUUUAGCUAGGUCAUCGGGUG [Fam2.2 aminoacylation ribozyme variant]	4.72	6.01	50.1	4	5.39	3.83
AUUUAUCUAGGUCAUCGGGUG [Fam2.2 aminoacylation ribozyme variant]	3.91	4.3	20.1	2.45	4.97	3.08
AUUUCCAUGGUCAUCGAGUGA [Fam2.1 aminoacylation ribozyme variant]	9.56	12	52.5	5.09	9.67	5.22
AUUUCCCGGGUCAUCGAGUGA [Fam2.1 aminoacylation ribozyme variant]	5.43	6.24	45.6	3.93	6.51	3.37
AUUUCCCUAGUCAUCGAGUGA [Fam2.1 aminoacylation ribozyme variant]	6.04	7.31	31.5	4.03	6.58	3.46
AUUUCCCUCGUCAUCGAGUGA [Fam2.1 aminoacylation ribozyme variant]	3.39	4.57	21.2	2.6	3.93	2.5
AUUUCCCUGGUAAUCGAGUGA [Fam2.1 aminoacylation ribozyme variant]	7.89	9.31	57.7	4.01	8.19	3.84
AUUUCCCUGGUCACCGAGUGA [Fam2.1 aminoacylation ribozyme variant]	8.77	9.27	66.2	4.43	8.24	3.79
AUUUCCCUGGUCAUCCAGUGA [Fam2.1 aminoacylation ribozyme variant]	7.52	9.93	55.4	4.5	8.35	4.3
AUUUCCCUGGUCAUCGAGAGA [Fam2.1 aminoacylation ribozyme variant]	0.896	0.74	1.31	1.27	1.1	1.2
AUUUCCCUGGUCAUCGAGGGA [Fam2.1 aminoacylation ribozyme variant]	1.44	1.65	1.28	1.59	1.83	1.47
